Reference: paper PMC2602784

Tests used:
Assay in all cases: EMSA
LldR K4A = target: T1, LldR K4A (Corynebacterium glutamicum ATCC 1332 …, UniProt Q8NLM6 1-231, K4A)
T1 sequence: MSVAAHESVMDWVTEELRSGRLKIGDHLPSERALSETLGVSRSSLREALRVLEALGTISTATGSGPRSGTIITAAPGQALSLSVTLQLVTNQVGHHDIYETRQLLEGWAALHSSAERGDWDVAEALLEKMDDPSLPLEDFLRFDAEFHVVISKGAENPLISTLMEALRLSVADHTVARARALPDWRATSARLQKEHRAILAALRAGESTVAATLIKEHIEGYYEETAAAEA

LldR R42A = target: T2, LldR R42A (Corynebacterium glutamicum ATCC 1332 …, UniProt Q8NLM6 1-231, R42A)
T2 sequence: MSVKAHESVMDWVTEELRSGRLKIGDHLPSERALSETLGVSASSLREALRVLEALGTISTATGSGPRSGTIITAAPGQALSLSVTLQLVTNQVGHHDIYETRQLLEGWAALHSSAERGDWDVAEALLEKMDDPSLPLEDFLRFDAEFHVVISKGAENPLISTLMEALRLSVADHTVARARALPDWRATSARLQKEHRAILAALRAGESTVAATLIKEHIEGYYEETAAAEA

LldR R32A = target: T3, LldR R32A (Corynebacterium glutamicum ATCC 1332 …, UniProt Q8NLM6 1-231, R32A)
T3 sequence: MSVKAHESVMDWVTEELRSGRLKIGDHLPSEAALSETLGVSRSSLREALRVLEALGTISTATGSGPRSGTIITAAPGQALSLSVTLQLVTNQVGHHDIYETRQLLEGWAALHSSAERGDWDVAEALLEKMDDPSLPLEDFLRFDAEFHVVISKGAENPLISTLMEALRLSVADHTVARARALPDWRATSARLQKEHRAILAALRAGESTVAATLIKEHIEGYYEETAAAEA

LldR G63A = target: T4, LldR G63A (Corynebacterium glutamicum ATCC 1332 …, UniProt Q8NLM6 1-231, G63A)
T4 sequence: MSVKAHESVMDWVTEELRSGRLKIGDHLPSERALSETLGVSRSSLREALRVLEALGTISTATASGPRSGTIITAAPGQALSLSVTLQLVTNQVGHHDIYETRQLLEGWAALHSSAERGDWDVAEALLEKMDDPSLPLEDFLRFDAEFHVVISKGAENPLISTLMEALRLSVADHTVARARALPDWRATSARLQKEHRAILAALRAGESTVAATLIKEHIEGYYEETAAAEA

Measured: binding result

B1: cgl2917-site1 (dsDNA)
DNA 1: TTGTGGTCTGACCATGA
DNA 2: TCATGGTCAGACCACAA
no binding: all assays above
